Data set [1] relates to HeLa Kyoto. Description: solubility change mitosis vs G1/S (difference of NP-40 vs SDS log2 ratios) (log2 ratio difference); higher = more soluble in mitosis.
Data set [2] deals with HeLa Kyoto. Description: solubility in G1/S (NP-40 vs SDS abundance) (log2 ratio); higher = more soluble. Particulars: cell cycle stage: G1/S.
Data set [3] concerns HeLa Kyoto. Put plainly: thermal stability score vs G1/S (z-score of summed log2 fold changes over temperatures); higher = more thermally stable than in G1/S.
Where [4] appears, read: cell cycle stage: early G1 (4.5 h after nocodazole release).
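Throughout, for solubility change mitosis vs G1/S (difference of NP-40 vs SDS log2 ratios): synchronized HeLa Kyoto cells (double thymidine block for G1/S, nocodazole release for mitosis), protein amounts in NP-40 versus SDS lysates quantified by mass spectrometry, three biological replicates.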
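Throughout, for solubility in G1/S (NP-40 vs SDS abundance): HeLa Kyoto cells arrested at G1/S by double thymidine block, proteins quantified by TMT10plex mass spectrometry in mild NP-40 versus SDS extracts, three biological replicates.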
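Throughout, for thermal stability score vs G1/S (z-score of summed log2 fold changes over temperatures): synchronized HeLa Kyoto cells, proteins quantified by TMT10plex mass spectrometry, three biological replicates, mitosis taken 0.5 h after nocodazole release, G1/S directly after double thymidine block.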

Take “MASAAVESFVTKQLDLLELERDAEVEERRSWQENISLKELQSRGVCLLKLQVSSQRTGLYGRLLVTFEPRRYGSAAALPSNSFTSGDIVGLYDAANEGSQLATGILTRVTQKSVTVAFDESHDFQLSLDRENSYRLLKLANDVTYRRLKKALIALKKYHSGPASSLIEVLFGRSAPSPASEIHPLTFFNTCLDTSQKEAVLFALSQKELAIIHGPPGTGKTTTVVEIILQAVKQGLKVLCCAPSNIAVDNLVERLALCKQRILRLGHPARLLESIQQHSLDAVLARSDSAQIVADIRKDIDQVFVKNKKTQDKREKSNFRNEIKLLRKELKEREEAAMLESLTSANVVLATNTGASADGPLKLLPESYFDVVVIDECAQALEASCWIPLLKARKCILAGDHKQLPPTTVSHKAALAGLSLSLMERLAEEYGARVVRTLTVQYRMHQAIMRWASDTMYLGQLTAHSSVARHLLRDLPGVAATEETGVPLLLVDTAGCGLFELEEEDEQSKGNPGEVRLVSLHIQALVDAGVPARDIAVVSPYNLQVDLLRQSLVHRHPELEIKSVDGFQGREKEAVILSFVRSNRKGEVGFLAEDRRINVAVTRARRHVAVICDSRTVNNHAFLKTLVEYFTQHGEVRTAFEYLDDIVPENYSHENSQGSSHAATKPQGPATSTRTGSQRQEGGQEAAAPARQGRKKPAGKSLASEAPSQPSLNGGSPEGVESQDGVDHFRAMIVEFMASKKMQLEFPPSLNSHDRLRVHQIAEEHGLRHDSSGEGKRRFITVSKRAPRPRAALGPPAGTGGPAPLQPVPPTPAQTEQPPREQRGPDQPDLRTLHLERLQRVRSAQGQPASKEQQASGQQKLPEKKKKKAKGHPATDLPTEEDFEALVSAAVKADNTCGFAKCTAGVTTLGQFCQLCSRRYCLSHHLPEIHGCGERARAHARQRISREGVLYAGSGTKNGSLDPAKRAQLQRRLDKKLSELSNQRTSRRKERGT [IGHMBP2]”: in data set [1], the “solubility change mitosis (log2)” value is 0.296. The “solubility in G1/S (log2)” value in data set [2] was -0.73. Further, the results for the thermal stability score in data set [3] (setting [4]) and in data set [3] (cell cycle stage: mitosis) were 0.859 and 0.156, respectively.
With “MASADKNGGSVSSVSSSRLQSRKPPNLSITIPPPEKETQAPGEQDSMLPEGFQNRRLKKSQPRTWAAHTTACPPSFLPKRKNPAYLKSVSLQEPRSRWQESSEKRPGFRRQASLSQSIRKGAAQWFGVSGDWEGQRQQWQRRSLHHCSMRYGRLKASCQRDLELPSQEAPSFQGTESPKPCKMPKIVDPLARGRAFRHPEEMDRPHAPHPPLTPGVLSLTSFTSVRSGYSHLPRRKRMSVAHMSLQAAAALLKGRSVLDATGQRCRVVKRSFAFPSFLEEDVVDGADTFDSSFFSKEEMSSMPDDVFESPPLSASYFRGIPHSASPVSPDGVQIPLKEYGRAPVPGPRRGKRIASKVKHFAFDRKKRHYGLGVVGNWLNRSYRRSISSTVQRQLESFDSHRPYFTYWLTFVHVIITLLVICTYGIAPVGFAQHVTTQLVLRNKGVYESVKYIQQENFWVGPSSIDLIHLGAKFSPCIRKDGQIEQLVLRERDLERDSGCCVQNDHSGCIQTQRKDCSETLATFVKWQDDTGPPMDKSDLGQKRTSGAVCHQDPRTCEEPASSGAHIWPDDITKWPICTEQARSNHTGFLHMDCEIKGRPCCIGTKGSCEITTREYCEFMHGYFHEEATLCSQVHCLDKVCGLLPFLNPEVPDQFYRLWLSLFLHAGVVHCLVSVVFQMTILRDLEKLAGWHRIAIIFILSGITGNLASAIFLPYRAEVGPAGSQFGLLACLFVELFQSWPLLERPWKAFLNLSAIVLFLFICGLLPWIDNIAHIFGFLSGLLLAFAFLPYITFGTSDKYRKRALILVSLLAFAGLFAALVLWLYIYPINWPWIEHLTCFPFTSRFCEKYELDQVLH [RHBDF2]”, the “solubility change mitosis (log2)” value in data set [1] amounted to 0.063. In addition, in data set [2], the “solubility in G1/S (log2)” value is -0.177. The results for the thermal stability score in data set [3] (setting [4]) and in data set [3] (cell cycle stage: mitosis) were -2.24 and -2.01, respectively.
On to “MASPRASRWPPPLLLLLLPLLLLPPAAPGTRDPPPSPARRALSLAPLAGAGLELQLERRPEREPPPTPPRERRGPATPGPSYRAPEPGAATQRGPSGRAPRGGSADAAWKHWPESNTEAHVENITFYQNQEDFSTVSSKEGVMVQTSGKSHAASDAPENLTLLAETADARGRSGSSSRTNFTILPVGYSLEIATALTSQSGNLASESLHLPSSSSEFDERIAAFQTKSGTASEMGTERAMGLSEEWTVHSQEATTSAWSPSFLPALEMGELTTPSRKRNSSGPDLSWLHFYRTAASSPLLDLSSSSESTEKLNNSTGLQSSSVSQTKTMHVATVFTDGGPRTLRSLTVSLGPVSKTEGFPKDSRIATTSSSVLLSPSAVESRRNSRVTGNPGDEEFIEPSTENEFGLTSLRWQNDSPTFGEHQLASSSEVQNGSPMSQTETVSRSVAPMRGGEITAHWLLTNSTTSADVTGSSASYPEGVNASVLTQFSDSTVQSGGSHTALGDRSYSESSSTSSSESLNSSAPRGERSIAGISYGQVRGTAIEQRTSSDHTDHTYLSSTFTKGERALLSITDNSSSSDIVESSTSYIKISNSSHSEYSSFFHAQTERSNISSYDGEYAQPSTESPVLHTSNLPSYTPTINMPNTSVVLDTDAEFVSDSSSSSSSSSSSSSSGPPLPLPSVSQSHHLFSSILPSTRASVHLLKSTSDASTPWSSSPSPLPVSLTTSTSAPLSVSQTTLPQSSSTPVLPRARETPVTSFQTSTMTSFMTMLHSSQTADLKSQSTPHQEKVITESKSPSLVSLPTESTKAVTTNSPLPPSLTESSTEQTLPATSTNLAQMSPTFTTTILKTSQPLMTTPGTLSSTASLVTGPIAVQTTAGKQLSLTHPEILVPQISTEGGISTERNRVIVDATTGLIPLTSVPTSAKEMTTKLGVTAEYSPASRSLGTSPSPQTTVVSTAEDLAPKSATFAVQSSTQSPTTVSSSASVNSCAVNPCLHNGECVADNTSRGYHCRCPPSWQGDDCSVDVNECLSNPCPSTAMCNNTQGSFICKCPVGYQLEKGICNLVRTFVTEFKLKRTFLNTTVEKHSDLQEVENEITKTLNMCFSALPSYIRSTVHASRESNAVVISLQTTFSLASNVTLFDLADRMQKCVNSCKSSAEVCQLLGSQRRIFRAGSLCKRKSPECDKDTSICTDLDGVALCQCKSGYFQFNKMDHSCRACEDGYRLENETCMSCPFGLGGLNCGNPYQLITVVIAAAGGGLLLILGIALIVTCCRKNKNDISKLIFKSGDFQMSPYAEYPKNPRSQEWGREAIEMHENGSTKNLLQMTDVYYSPTSVRNPELERNGLYPAYTGLPGSRHSCIFPGQYNPSFISDESRRRDYF [HEG1]”, for which the “solubility change mitosis (log2)” value in data set [1] is -0.0254. Also, the “solubility in G1/S (log2)” value in data set [2] is -0.231. Also, the thermal stability score was -0.763 in data set [3] (setting [4]) and -1.15 in data set [3] (cell cycle stage: mitosis).
In the case of “MATPDVSVHMEEVVVVTTPDTAVDGSGVEGVKTVLVTTNLAPHGGDLTEDNMETENAAAAAAAAFTASSQLKEAVLVKMAEEGENLEAEIVYPITCGDSRANLIWRKFVCPGINVKCVQYDEHVISPKEFVHLAGKSTLKDWKRAIRMNGIMLRKIMDSGELDFYQHDKVCSNTCRSTKIDLSGARVSLSSPTSAEYIPLTPAAADVNGSPATITIETCEDPGDWTAAIGDDTFTFWRGLKDAGLLDEVIQEFHQELVETMRGLQQRVQDPPLQLRDAVLLNNIVQNFGMLDLVKKVLASHKCQMDRSREQYARDLAALEQQCDEHRRRAKELKHKSQHLSNVLMTLTPVSLPPPVKRPRLARATSGPAAMASQVLTQSAQLALGPGVPVPQLTSVPLGKVVSTLPSTVLGKGSLQAPPASSPASPLLGGYTVLASSGSTYPSTVEIHPDASSLTVLSTAAVQDGSTVFKVVSPLQLLTLPGLGPTLQNVAQASPGSSTIVTVPAGAAPGPEEHTATIEVAAMAEDHERK [GMEB2]”, the “solubility change mitosis (log2)” value in data set [1] was 0.0606. Also, the “solubility in G1/S (log2)” value in data set [2] is -0.0692. The results for the thermal stability score in data set [3] (setting [4]) and in data set [3] (cell cycle stage: mitosis) were 0.359 and 0.761, respectively.
Turning to “MDSQELKTLINYYCQERYFHHVLLVASEGIKRYGSDPVFRFYHAYGTLMEGKTQEALREFEAIKNKQDVSLCSLLALIYAHKMSPNPDREAILESDARVKEQRKGAGEKALYHAGLFLWHIGRHDKAREYIDRMIKISDGSKQGHVLKAWLDITRGKEPYTKKALKYFEEGLQDGNDTFALLGKAQCLEMRQNYSGALETVNQIIVNFPSFLPAFVKKMKLQLALQDWDQTVETAQRLLLQDSQNVEALRMQALYYVCREGDIEKASTKLENLGNTLDAMEPQNAQLFYNITLAFSRTCGRSQLILQKIQTLLERAFSLNPQQSEFATELGYQMILQGRVKEALKWYKTAMTLDETSVSALVGFIQCQLIEGQLQDADQQLEFLNEIQQSIGKSAELIYLHAVLAMKKNKRQEEVINLLNDVLDTHFSQLEGLPLGIQYFEKLNPDFLLEIVMEYLSFCPMQPASPGQPLCPLLRRCISVLETVVRTVPGLLQTVFLIAKVKYLSGDIEAAFNNLQHCLEHNPSYADAHLLLAQVYLSQEKVKLCSQSLELCLSYDFKVRDYPLYHLIKAQSQKKMGEIADAIKTLHMAMSLPGMKRIGASTKSKDRKTEVDTSHRLSIFLELIDVHRLNGEQHEATKVLQDAIHEFSGTSEEVRVTIANADLALAQGDIERALSILQNVTAEQPYFIEAREKMADIYLKHRKDKMLYITCFREIAERMANPRSFLLLGDAYMNILEPEEAIVAYEQALNQNPKDGTLASKMGKALIKTHNYSMAITYYEAALKTGQKNYLCYDLAELLLKLKWYDKAEKVLQHALAHEPVNELSALMEDGRCQVLLAKVYSKMEKLGDAITALQQARELQARVLKRVQMEQPDAVPAQKHLAAEICAEIAKHSVAQRDYEKAIKFYREALVHCETDNKIMLELARLYLAQDDPDSCLRQCALLLQSDQDNEAATMMMADLMFRKQDYEQAVFHLQQLLERKPDNYMTLSRLIDLLRRCGKLEDVPRFFSMAEKRNSRAKLEPGFQYCKGLYLWYTGEPNDALRHFNKARKDRDWGQNALYNMIEICLNPDNETVGGEVFENLDGDLGNSTEKQESVQLAVRTAEKLLKELKPQTVQGHVQLRIMENYCLMATKQKSNVEQALNTFTEIAASEKEHIPALLGMATAYMILKQTPRARNQLKRIAKMNWNAIDAEEFEKSWLLLADIYIQSAKYDMAEDLLKRCLRHNRSCCKAYEYMGYIMEKEQAYTDAALNYEMAWKYSNRTNPAVGYKLAFNYLKAKRYVDSIDICHQVLEAHPTYPKIRKDILDKARASLRP [TTC21B]”, the “solubility change mitosis (log2)” value in data set [1] is -0.211. In addition, the “solubility in G1/S (log2)” value in data set [2] is -0.116. Moreover, the figures for the thermal stability score in data set [3] (setting [4]) and in data set [3] (cell cycle stage: mitosis) were 1.06 and 0.205, respectively.
Regarding “MEASLGIQMDEPMAFSPQRDRFQAEGSLKKNEQNFKLAGVKKDIEKLYEAVPQLSNVFKIEDKIGEGTFSSVYLATAQLQVGPEEKIALKHLIPTSHPIRIAAELQCLTVAGGQDNVMGVKYCFRKNDHVVIAMPYLEHESFLDILNSLSFQEVREYMLNLFKALKRIHQFGIVHRDVKPSNFLYNRRLKKYALVDFGLAQGTHDTKIELLKFVQSEAQQERCSQNKSHIITGNKIPLSGPVPKELDQQSTTKASVKRPYTNAQIQIKQGKDGKEGSVGLSVQRSVFGERNFNIHSSISHESPAVKLMKQSKTVDVLSRKLATKKKAISTKVMNSAVMRKTASSCPASLTCDCYATDKVCSICLSRRQQVAPRAGTPGFRAPEVLTKCPNQTTAIDMWSAGVIFLSLLSGRYPFYKASDDLTALAQIMTIRGSRETIQAAKTFGKSILCSKEVPAQDLRKLCERLRGMDSSTPKLTSDIQGHASHQPAISEKTDHKASCLVQTPPGQYSGNSFKKGDSNSCEHCFDEYNTNLEGWNEVPDEAYDLLDKLLDLNPASRITAEEALLHPFFKDMSL [CDC7]”, the “solubility change mitosis (log2)” value in data set [1] was 0.0299. Besides, in data set [2], the “solubility in G1/S (log2)” value is -0.0102. Further, the values for the thermal stability score in data set [3] (setting [4]) and in data set [3] (cell cycle stage: mitosis) were 2.43 and 2.74, respectively.
For MED13, in that order: -0.112, -0.213, -0.573 and -0.435.

The values above are taken from the supplement of paper PMC5998384.
